Measured values published in patent US20200123252A1 (LAMKAP BIO BETA, published 2020).
Positions count from the first letter of the chain named.

Experiments:
human CEACAM6 = molecular target: T1, human CEACAM6 (human, UniProt P40199 35-320); experiment: statement in the legend of FIG. 21A (FACS on MKN-45 cells)
T1 construct: also called CD66c; biotinylated recombinant human CEACAM6
T1 sequence (looked up): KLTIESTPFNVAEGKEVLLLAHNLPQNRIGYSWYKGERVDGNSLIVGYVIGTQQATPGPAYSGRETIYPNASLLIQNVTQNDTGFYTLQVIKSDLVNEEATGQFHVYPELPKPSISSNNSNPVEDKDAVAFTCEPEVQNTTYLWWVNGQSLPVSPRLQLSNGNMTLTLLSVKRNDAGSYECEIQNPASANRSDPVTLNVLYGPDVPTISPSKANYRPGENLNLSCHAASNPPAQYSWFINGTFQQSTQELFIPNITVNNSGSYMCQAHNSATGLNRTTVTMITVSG

[1] = molecular target: T2, human CD47 on MKN45 cells (human, UniProt Q08722 19-323); experiment: inhibition of SIRPα-mouseFc binding to CD47 on MKN45 cells, imaging (CX5)
T2 construct: whole, on cells; also called IAP
Text: The detection of bound SIRPα cell-based assay monitoring the interaction of soluble SIRPα with human CD47 expressed at the surface of MKN45 is used for the detection of the blocking activity. Dose-response experiments with bispecific antibodies according to the invention allow determination of an IC50 value.
MKN45 cancer cells, expressing both CD47 and CEACAM5, are stained with CFSE violet to allow the imaging system (CX5) to detect the cells. Briefly, 3,000 stained MKN45 cells per well are seeded in a 384 optical well plate (Costar) and incubated for 50 minutes with increased concentrations of bispecific antibodies of the invention (1.9 pM to 333 nM, in quadruplicates). Then, a fixe concentration of SIRPα-mouseFc premixed with anti-mouse IgG-Fc AF647 coupled antibody (Jackson Immunoresearch diluted 1:2000) is added at 50 ng/mL final. After an incubation of 3H30 plates are acquired with the imaging system (CX5, Thermofisher) and fluorescence signals emitted by the detected bound SIRPα is recorded by the software dedicated to the imaging system. Fluorescence signals are plotted according to the dose range tested and IC50 are calculated by the software (Prism, Graphpad).

[2] = molecular target: T3, human CEACAM5 on MKN-45 cells (human, UniProt P06731 35-685); experiment: FACS binding to MKN-45 cells, which express CD47, CEACAM5 and CEACAM6
T3 construct: Endogenous CEACAM5 on MKN-45 gastric adenocarcinoma cells, which also carry CD47 (and CEACAM6); also called CD66e; MKN45 CEA+ cancer cells
T3 sequence: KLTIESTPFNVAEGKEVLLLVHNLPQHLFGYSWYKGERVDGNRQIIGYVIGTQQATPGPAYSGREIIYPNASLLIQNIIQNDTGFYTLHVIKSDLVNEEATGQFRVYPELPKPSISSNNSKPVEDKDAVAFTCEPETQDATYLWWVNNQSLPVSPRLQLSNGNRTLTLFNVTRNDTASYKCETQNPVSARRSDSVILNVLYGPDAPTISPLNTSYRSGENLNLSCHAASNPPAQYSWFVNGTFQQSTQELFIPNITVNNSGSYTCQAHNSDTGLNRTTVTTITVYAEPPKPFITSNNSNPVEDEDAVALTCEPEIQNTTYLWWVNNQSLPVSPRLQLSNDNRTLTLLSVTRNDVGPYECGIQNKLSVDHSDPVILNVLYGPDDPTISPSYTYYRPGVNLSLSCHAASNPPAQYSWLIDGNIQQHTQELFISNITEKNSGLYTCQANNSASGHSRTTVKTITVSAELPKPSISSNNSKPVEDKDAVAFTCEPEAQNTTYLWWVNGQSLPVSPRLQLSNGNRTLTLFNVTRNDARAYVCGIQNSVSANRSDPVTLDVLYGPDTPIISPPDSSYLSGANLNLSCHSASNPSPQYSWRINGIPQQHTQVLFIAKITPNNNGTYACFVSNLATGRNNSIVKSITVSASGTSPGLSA

[3] = molecular target: T3, human CEACAM5 on MKN-45 cells; experiment: flow cytometry on MKN45 CEA+ cells (carry CEACAM5 and CD47)
shed CEA (soluble CEA) = molecular target: T4, shed CEA (soluble CEA) (human, UniProt P06731 35-685, limits assumed); experiment: cell-based or functional assay
T4 sequence (looked up): T3 sequence with K364E

[4] = molecular target: T3, human CEACAM5 on MKN-45 cells; experiment: binding to MKN-45 cells (MFI), in the presence of 200 ng/mL shed CEA
[5] = molecular target: T3, human CEACAM5 on MKN-45 cells; experiment: binding to MKN-45 cells (MFI), without shed CEA

binding result (human CEACAM6): no binding | IC50 [1]: 0.37 nM | EC50 (read off the curve) [2]: ~1 µg/mL | EC50 [3]: 16.5 nM | shift of EC50 of the phagocytosis index curve of MKN-45 cells by 200 ng/mL shed CEA (shed CEA (soluble CEA)): < 4 fold | EC50 (read off the curve) [4]: ~0.5 µg/mL | EC50 (read off the curve) [5]: ~0.5 µg/mL
B1: K2AC22 CEA×CD47 bispecific antibody (bispecific antibody, human IgG1, kappa, lambda)
heavy: not shown
light 1: QSVLTQPPSVSAAPGQKVTISCSGSSSNIANGIVSWYQQLPGTAPKLLIYFDNLRPSGIPDRFSGSKSGTSATLGITGLQTGDEADYYCGTWDFSYGIVFGGGTKLTVLGQPKAAPSVTLFPPSSEELQANKATLVCLISDFYPGAVTVAWKADSSPVKAGVETTTPSKQSNNKYAASSYLSLTPEQWKSHRSYSCQVTHEGSTVEKTVAPTECS
light 2: not shown
notes: κλ body, human IgG1, common heavy chain; CEACAM5 arm light chain 1G6 (AC22)
